The numbers were not newly measured in PMC12198371 (Nature Communications, 2025), which cites them from elsewhere.

This series concerns the target α-chymotrypsin. To be noted: natural inhibitor, Fig. 9d.

B1: BBI G.m.: Bowman–Birk inhibitor (BBI) from soybean Glycine max (71 amino acids) (protein, UniProt P01055 40-110, looked up)
Bowman-Birk type proteinase …: DDESSKPCCDQCACTKSNPPQCRCSDMRLNSCHSACKSCICALSYPAQCFCVDITDFCYEPCKPSEDDKEN
As usually defined, the Ki is a measure of affinity in units of concentration, obtained from inhibition or displacement. On to B1, for which the Ki was 6 nM.
